Laboratory results published in patent US20120178908A1 (Novo Nordisk, published 2012).
* marks the point of attachment. Biotin = O=C1N[C@H]2[C@H](CS[C@H]2CCCCC(=O)*)N1; AEEA = NCCOCCOCC(=O)O

How the values were obtained:
Test in all cases: peptide-walk ELISA, biotin-peptide on streptavidin plate, triple determination
[1] = target: T1, biotinylated 20mer TLT-1 stalk peptide 5 (N-terminal biotin via 8-amino-3,6-dioxaoctanoic acid (bio-Oeg))
T1 construct: also called well A 5
T1 peptide: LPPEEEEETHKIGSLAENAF
Experimental: (§1) Epitope mapping by peptide walk. The peptide walking ELISA defined the minimal binding region of the peptide. This was established by coating biotinylated peptides with one residue frameshift in the stalk region of TLT-1 in streptavidin plates followed by binding of the antibody of interest (mAb 0061). A secondary antibody was added for detection and binding was measured at 450 nm. Positive control: binding to biotinylated TLT-1.
(§2) 1) 20mer peptide mapping with one residue frameshift (20,1) (see materials) 2) 16mer peptide mapping with one residue frameshift (16,1) (see materials) [0687] 1. Plate was prre-washed 3× with 250 μl wash buffer [0688] 2. 100 μl Biotinylated peptide-solution was added (from Masterplate 10000× diluted, one peptide pr well) [0689] 3. Incubated at RT for 1 hour or +5° C. over night [0690] 4. Washed 3× with wash buffer [0691] 5. 100 μl Primary antibody was added (dilution see above) [0692] 6. Incubated at RT for 1 hour [0693] 7. Washed 3× with wash buffer [0694] 8. 100 μl Secondary antibody was added (dilution see above) [0695] 9. Incubated at RT for 1 hour [0696] 10. Washed 3× with wash buffer [0697] 11. 100 μl Substrate/Develop buffer was added (Reaction time 3 min) [0698] 12. 100 μl 2M H3PO4 was added [0699] 13. Endpoint was read at 450 nm

[2] = target: T2, biotinylated 20mer TLT-1 stalk peptide 6 (N-terminal biotin via 8-amino-3,6-dioxaoctanoic acid (bio-Oeg))
T2 construct: also called well A 6
T2 peptide: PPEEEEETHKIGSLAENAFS
Experimental: as §1, §2

[3] = target: T3, biotinylated 20mer TLT-1 stalk peptide 7 (N-terminal biotin via 8-amino-3,6-dioxaoctanoic acid (bio-Oeg))
T3 construct: also called well A 7
T3 peptide: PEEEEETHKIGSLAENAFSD
Experimental: as §1, §2

[4] = target: T4, biotinylated 20mer TLT-1 stalk peptide 8 (N-terminal biotin via 8-amino-3,6-dioxaoctanoic acid (bio-Oeg))
T4 construct: also called well A 8
T4 peptide: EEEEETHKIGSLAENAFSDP
Experimental: as §1, §2

[5] = target: T5, biotinylated 20mer TLT-1 stalk peptide 9 (N-terminal biotin via 8-amino-3,6-dioxaoctanoic acid (bio-Oeg))
T5 construct: also called well A 9
T5 peptide: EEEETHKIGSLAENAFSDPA
Experimental: as §1, §2

[6] = target: T6, biotinylated 20mer TLT-1 stalk peptide 10 (N-terminal biotin via 8-amino-3,6-dioxaoctanoic acid (bio-Oeg))
T6 construct: also called well A10
T6 peptide: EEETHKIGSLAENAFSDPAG
Experimental: as §1, §2

[7] = target: T7, biotinylated 20mer TLT-1 stalk peptide 11 (N-terminal biotin via 8-amino-3,6-dioxaoctanoic acid (bio-Oeg))
T7 construct: also called well A11
T7 peptide: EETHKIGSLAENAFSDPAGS
Experimental: as §1, §2

[8] = target: T8, biotinylated 20mer TLT-1 stalk peptide 12 (N-terminal biotin via 8-amino-3,6-dioxaoctanoic acid (bio-Oeg))
T8 construct: also called well A12
T8 peptide: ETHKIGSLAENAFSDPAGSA
Experimental: as §1, §2

[9] = target: T9, biotinylated 20mer TLT-1 stalk peptide 13 (N-terminal biotin via 8-amino-3,6-dioxaoctanoic acid (bio-Oeg))
T9 construct: also called well B 1
T9 peptide: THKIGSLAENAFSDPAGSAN
Experimental: as §1, §2

[10] = target: T10, biotinylated 20mer TLT-1 stalk peptide 14 (N-terminal biotin via 8-amino-3,6-dioxaoctanoic acid (bio-Oeg))
T10 construct: also called well B 2
T10 peptide: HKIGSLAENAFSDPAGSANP
Experimental: as §1, §2

[11] = target: T11, biotinylated 20mer TLT-1 stalk peptide 15 (N-terminal biotin via 8-amino-3,6-dioxaoctanoic acid (bio-Oeg))
T11 construct: also called well B 3
T11 peptide: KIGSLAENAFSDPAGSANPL
Experimental: as §1, §2

[12] = target: T12, biotinylated 20mer TLT-1 stalk peptide 16 (N-terminal biotin via 8-amino-3,6-dioxaoctanoic acid (bio-Oeg))
T12 construct: also called well B 4
T12 peptide: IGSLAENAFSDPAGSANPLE
Experimental: as §1, §2

[13] = target: T13, biotinylated 16mer hTLT-1 stalk peptide 36 (SMILES …)
T13 construct: also called well C12
T13 peptide: {Biotin-AEEA}-EEEETHKIGSLAENAF-NH2
Experimental: as §1, §2

[14] = target: T14, biotinylated 16mer hTLT-1 stalk peptide 37 (SMILES …)
T14 construct: also called well D 1
T14 peptide: {Biotin-AEEA}-EEETHKIGSLAENAFS-NH2
Experimental: as §1, §2

[15] = target: T15, biotinylated 16mer hTLT-1 stalk peptide 38 (SMILES …)
T15 construct: also called well D 2
T15 peptide: {Biotin-AEEA}-EETHKIGSLAENAFSD-NH2
Experimental: as §1, §2

[16] = target: T16, biotinylated 16mer hTLT-1 stalk peptide 39 (SMILES …)
T16 construct: also called well D 3
T16 peptide: {Biotin-AEEA}-ETHKIGSLAENAFSDP-NH2
Experimental: as §1, §2

[17] = target: T17, biotinylated 16mer hTLT-1 stalk peptide 40 (SMILES …)
T17 construct: also called well D 4
T17 peptide: {Biotin-AEEA}-THKIGSLAENAFSDPA-NH2
Experimental: as §1, §2

[18] = target: T18, biotinylated 16mer hTLT-1 stalk peptide 41 (SMILES …)
T18 construct: also called well D 5
T18 peptide: {Biotin-AEEA}-HKIGSLAENAFSDPAG-NH2
Experimental: as §1, §2

[19] = target: T19, biotinylated 16mer hTLT-1 stalk peptide 42 (SMILES …)
T19 construct: also called well D 6
T19 peptide: {Biotin-AEEA}-KIGSLAENAFSDPAGS-NH2
Experimental: as §1, §2

Measured: absorbance at 450 nm

B1: mAb 0061 HC2; LC2 (antibody, V domains shown)
VH: EVKLLESGGGLVQPGGSLKLSCAASGFDFSRYWMTWVRQAPGKGLEWIGEINPDSSTINYNPSLKDKFIISRDNAKNTLYLQMSEVRSEDTALYYCASGVFTSWGQGTLVTVSA
VL: DVVMTQTPLSLPVSLGDQASISCRSSQSLVHRNGNTYFHWALQKPGQSPKLLIYKVSNRFSGVPDRFSGSGSGTDFTLKISRVEAEDLGVYFCSQSTHVPYTFGGGTKLEIKR
notes: also called 0197-0000-0061; 0012HC.T60N + 0012LC.C36A
> 3 A450: [1] | [2] | [3] | [4] | [5] | [6] | [7] | [8] | [9] | [10] | [11] | [12] | [13] | [14] | [15] | [16] | [17] | [18] | [19]
